We go through 15 molecules from patent US20250163167A1 (SYNTHEKINE, published 2025).

T1: human IL-10 receptor (hIL-10R alpha and beta chains) on HEK-Blue IL-10 reporter cells (human, UniProt Q13651 22-578; Q08334 20-325)
T1 sequence 1: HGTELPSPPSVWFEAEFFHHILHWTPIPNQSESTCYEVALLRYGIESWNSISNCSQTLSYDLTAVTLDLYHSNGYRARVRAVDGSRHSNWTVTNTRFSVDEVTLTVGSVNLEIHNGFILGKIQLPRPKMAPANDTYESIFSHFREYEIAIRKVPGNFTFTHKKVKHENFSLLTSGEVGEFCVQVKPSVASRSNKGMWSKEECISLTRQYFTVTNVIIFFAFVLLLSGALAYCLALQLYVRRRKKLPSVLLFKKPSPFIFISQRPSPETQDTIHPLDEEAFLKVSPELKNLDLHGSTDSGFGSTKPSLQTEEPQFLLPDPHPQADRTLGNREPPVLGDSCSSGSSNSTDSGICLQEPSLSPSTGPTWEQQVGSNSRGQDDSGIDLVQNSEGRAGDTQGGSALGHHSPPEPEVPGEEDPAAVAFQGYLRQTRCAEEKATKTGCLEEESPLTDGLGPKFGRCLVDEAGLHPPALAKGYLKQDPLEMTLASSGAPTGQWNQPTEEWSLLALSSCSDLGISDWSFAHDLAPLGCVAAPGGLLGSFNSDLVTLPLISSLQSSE
T1 sequence 2: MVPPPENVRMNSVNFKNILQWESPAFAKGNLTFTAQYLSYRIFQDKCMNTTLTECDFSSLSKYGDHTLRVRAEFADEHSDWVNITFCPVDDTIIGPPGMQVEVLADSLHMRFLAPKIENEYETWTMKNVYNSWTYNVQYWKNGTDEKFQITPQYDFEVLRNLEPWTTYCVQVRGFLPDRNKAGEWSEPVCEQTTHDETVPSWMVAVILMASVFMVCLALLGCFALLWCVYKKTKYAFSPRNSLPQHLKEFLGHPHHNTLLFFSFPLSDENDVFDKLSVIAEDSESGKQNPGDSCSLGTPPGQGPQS

B1: IL10R binding molecule of SEQ ID NO: 319 (bispecific antibody)
chain: QVQLQESGGGSVQAGGSLRLSCAASRYTYNSYCMGWFRQAPGKEREGVATIDSDGMTRYADSVKGRFTISKDNAKNTLYLQMNSLKPEDTAMYYCAADADCTIAAMTTNPLGQGTQVTVSSGGGSQVQLQESGGGSVQAGGSLRLSCAASRYLYSIDYMAWFRQSPGKEREPVAVIYTASGATFYPDSVKGRFTISQDNAKMTVYLQMNSLKSEDTAMYYCAAVRKTDSYLFDAQSFTYWGQGTQVTVSSASHHHHHH
B2: IL10R binding molecule of SEQ ID NO: 329 (bispecific antibody)
chain: QVQLQESGGGSVQAGGSLRLSCTVSRYTASVNYMGWFRQAPGKEREGVATIFTGAGTTYYANSVKGRFTISRDNAKNTAYLQMNSLKPEDTAIYYCAVDFRGGLLYRPAYEYTYRGQGTQVTVSSGGGSQVQLQESGGGSVQAGGSLRLSCAVSGYAYSTYCMGWFRQAPGKEREGVAAIDSGGSTSYADSVKGRFTISKDNAKNTLYLRMNSLKPEDTAMYYCAAVPPPPDGGSCLFLGPEIKVSKADFRYWGQGTQVTVSSASHHHHHH
B3: IL10R binding molecule of SEQ ID NO: 323 (bispecific antibody)
chain: QVQLQESGGGSVQAGGSLRLSCAASRYTYNSYCMGWFRQAPGKEREGVATIDSDGMTRYADSVKGRFTISKDNAKNTLYLQMNSLKPEDTAMYYCAADADCTIAAMTTNPLGQGTQVTVSSGGGSQVQLQESGGGSVQAGGSLRLSCTVSGYTYSSNCMGWFRQAPGKEREGVATIYTGGGNTYYADSVKGRFTISQDNAKNTVYLQMNNLKPEDTAMYYCAAEPLSRVYGGSCPTPTFDYWGQGTQVTVSSASHHHHHH
B4: IL10R binding molecule of SEQ ID NO: 324 (bispecific antibody)
chain: QVQLQESGGGSVQAGGSLRLSCAASRYTYNSYCMGWFRQAPGKEREGVATIDSDGMTRYADSVKGRFTISKDNAKNTLYLQMNSLKPEDTAMYYCAADADCTIAAMTTNPLGQGTQVTVSSGGGSQVQLQESGGGSVQAGGSLRLSCGASGYTYSSYCMGWFRQVPGKEREGVAVIDSDGSTSYADSVKGRFTISKDNGKNTLYLQMNSLKPEDTAMYYCAADLGHYRPPCGVLYLGMDYWGKGTQVTVSSASHHHHHH
B5: IL10R binding molecule of SEQ ID NO: 327 (bispecific antibody)
chain: QVQLQESGGGSVQAGGSLRLSCTVSRYTASVNYMGWFRQAPGKEREGVATIFTGAGTTYYANSVKGRFTISRDNAKNTAYLQMNSLKPEDTAIYYCAVDFRGGLLYRPAYEYTYRGQGTQVTVSSGGGSQVQLQESGGGSVQAGGSLRLSCAASRFTYSSYCMGWFRQAPGKEREGVASIDSDGSTSYTDSVKGRFTISKDNAKNTLYLQMNSLKPEDTAMYYCALDLMSTVVPGFCGFLLSAGMDYWGKGTQVTVSSASHHHHHH
B6: IL10R binding molecule of SEQ ID NO: 320 (bispecific antibody)
chain: QVQLQESGGGSVQAGGSLRLSCAASRYTYNSYCMGWFRQAPGKEREGVATIDSDGMTRYADSVKGRFTISKDNAKNTLYLQMNSLKPEDTAMYYCAADADCTIAAMTTNPLGQGTQVTVSSGGGSQVQLQESGGGSVQAGGSLRLSCAASRFTYSSYCMGWFRQAPGKEREGVASIDSDGSTSYTDSVKGRFTISKDNAKNTLYLQMNSLKPEDTAMYYCALDLMSTVVPGFCGFLLSAGMDYWGKGTQVTVSSASHHHHHH
B7: IL10R binding molecule of SEQ ID NO: 326 (bispecific antibody)
chain: QVQLQESGGGSVQAGGSLRLSCTVSRYTASVNYMGWFRQAPGKEREGVATIFTGAGTTYYANSVKGRFTISRDNAKNTAYLQMNSLKPEDTAIYYCAVDFRGGLLYRPAYEYTYRGQGTQVTVSSGGGSQVQLQESGGGSVQAGGSLRLSCAASRYLYSIDYMAWFRQSPGKEREPVAVIYTASGATFYPDSVKGRFTISQDNAKMTVYLQMNSLKSEDTAMYYCAAVRKTDSYLFDAQSFTYWGQGTQVTVSSASHHHHHH
B8: IL10R binding molecule of SEQ ID NO: 317 (bispecific antibody)
chain: QVQLQESGGGSVQAGGSLRLSCAASGYTYSSYCMGWFRQAPGKEREGVAHIDSDGSTSYADSVKGRFTISKDNAKNTLYLQMNSLKPEDTAMYYCAADPIPGPGYCDGGPNKYWGQGTQVTVSSGGGSQVQLQESGGGSVQAGGSLRLSCGASGYTYSSYCMGWFRQVPGKEREGVAVIDSDGSTSYADSVKGRFTISKDNGKNTLYLQMNSLKPEDTAMYYCAADLGHYRPPCGVLYLGMDYWGKGTQVTVSSASHHHHHH
B9: IL10R binding molecule of SEQ ID NO: 328 (bispecific antibody)
chain: QVQLQESGGGSVQAGGSLRLSCTVSRYTASVNYMGWFRQAPGKEREGVATIFTGAGTTYYANSVKGRFTISRDNAKNTAYLQMNSLKPEDTAIYYCAVDFRGGLLYRPAYEYTYRGQGTQVTVSSGGGSQVQLQESGGGSVQAGGSLRLSCAASGYTYSMYCMGWFRQAPGKEREGVAQINSDGSTSYADSVKGRFTISKDNAKNTLYLQMNSLKPEDTAMYYCAADSRVYGGSWYERLCGPYTYEYNYWGQGTQVTVSSASHHHHHH
B10: IL10R binding molecule of SEQ ID NO: 318 (bispecific antibody)
chain: QVQLQESGGGSVQAGGSLRLSCAASGYTYSSYCMGWFRQAPGKEREGVAHIDSDGSTSYADSVKGRFTISKDNAKNTLYLQMNSLKPEDTAMYYCAADPIPGPGYCDGGPNKYWGQGTQVTVSSGGGSQVQLQESGGGSVQAGGSLRLSCAASGYSNCSYDMTWYRQAPGKEREFVSAIHSDGSTRYADSVKGRFFISQDNAKNTVYLQMNSLKPEDTAMYYCKTDPLHCRAHGGSWYSVRANYWGQGTQVTVSSASHHHHHH
B11: IL10R binding molecule of SEQ ID NO: 261 (bispecific antibody)
chain: QVQLQESGGGSVQAGGSLRLSCAASRYLYSIDYMAWFRQSPGKEREPVAVIYTASGATFYPDSVKGRFTISQDNAKMTVYLQMNSLKSEDTAMYYCAAVRKTDSYLFDAQSFTYWGQGTQVTVSSGGGSQVQLQESGGGSVQAGGSLRLSCAASGYSYSSYCMGWFRQAPGKEREGVATIDSDGMTRYADSVKGRFTISKDNAKNTLYLQMNSLKPEDTAMYYCAAPLYDCDSGAVGRNPPYWGQGTQVTVSSASHHHHHH
B12: IL10R binding molecule of SEQ ID NO: 321 (bispecific antibody)
chain: QVQLQESGGGSVQAGGSLRLSCAASRYTYNSYCMGWFRQAPGKEREGVATIDSDGMTRYADSVKGRFTISKDNAKNTLYLQMNSLKPEDTAMYYCAADADCTIAAMTTNPLGQGTQVTVSSGGGSQVQLQESGGGSVQAGGSLRLSCAASGYTYSMYCMGWFRQAPGKEREGVAQINSDGSTSYADSVKGRFTISKDNAKNTLYLQMNSLKPEDTAMYYCAADSRVYGGSWYERLCGPYTYEYNYWGQGTQVTVSSASHHHHHH
B13: IL10R binding molecule of SEQ ID NO: 325 (bispecific antibody)
chain: QVQLQESGGGSVQAGGSLRLSCAASRYTYNSYCMGWFRQAPGKEREGVATIDSDGMTRYADSVKGRFTISKDNAKNTLYLQMNSLKPEDTAMYYCAADADCTIAAMTTNPLGQGTQVTVSSGGGSQVQLQESGGGSVQAGGSLRLSCAASGYSNCSYDMTWYRQAPGKEREFVSAIHSDGSTRYADSVKGRFFISQDNAKNTVYLQMNSLKPEDTAMYYCKTDPLHCRAHGGSWYSVRANYWGQGTQVTVSSASHHHHHH
B14: IL10R binding molecule of SEQ ID NO: 322 (bispecific antibody)
chain: QVQLQESGGGSVQAGGSLRLSCAASRYTYNSYCMGWFRQAPGKEREGVATIDSDGMTRYADSVKGRFTISKDNAKNTLYLQMNSLKPEDTAMYYCAADADCTIAAMTTNPLGQGTQVTVSSGGGSQVQLQESGGGSVQAGGSLRLSCAVSGYAYSTYCMGWFRQAPGKEREGVAAIDSGGSTSYADSVKGRFTISKDNAKNTLYLRMNSLKPEDTAMYYCAAVPPPPDGGSCLFLGPEIKVSKADFRYWGQGTQVTVSSASHHHHHH
B15: IL10R binding molecule of SEQ ID NO: 316 (bispecific antibody)
chain: QVQLQESGGGSVQAGGSLRLSCAASGYTYSSYCMGWFRQAPGKEREGVAHIDSDGSTSYADSVKGRFTISKDNAKNTLYLQMNSLKPEDTAMYYCAADPIPGPGYCDGGPNKYWGQGTQVTVSSGGGSQVQLQESGGGSVQAGGSLRLSCTVSGYTYSSNCMGWFRQAPGKEREGVATIYTGGGNTYYADSVKGRFTISQDNAKNTVYLQMNNLKPEDTAMYYCAAEPLSRVYGGSCPTPTFDYWGQGTQVTVSSASHHHHHH

The target of the experiment is T1, human IL-10 receptor (hIL-10R alpha and …). Kind of experiment: cell-based or functional assay.
On to B1, for which the “Abs 630 (25 nM)” value came out at 0.47 Abs 630 and the “Abs 630 (100 nM)” value worked out at 0.36 Abs 630.

As for B2, the “Abs 630 (25 nM)” value came out at 0.48 Abs 630 and the “Abs 630 (100 nM)” value is 0.39 Abs 630.

Take B3: the “Abs 630 (25 nM)” value worked out at 0.64 Abs 630 and the “Abs 630 (100 nM)” value came out at 0.38 Abs 630.

Turning to B4, the “Abs 630 (25 nM)” value came to 0.61 Abs 630 and the “Abs 630 (100 nM)” value amounted to 0.44 Abs 630.

B5: the “Abs 630 (25 nM)” value was found to be 0.52 Abs 630 and the “Abs 630 (100 nM)” value stood at 0.54 Abs 630.

Regarding B6, the “Abs 630 (25 nM)” value turned out to be 0.54 Abs 630 and the “Abs 630 (100 nM)” value came to 0.41 Abs 630.

Take B7: the “Abs 630 (25 nM)” value was 0.47 Abs 630 and the “Abs 630 (100 nM)” value amounted to 0.56 Abs 630.

B8: the “Abs 630 (25 nM)” value is 0.45 Abs 630 and the “Abs 630 (100 nM)” value amounted to 0.38 Abs 630.

As to B9, the “Abs 630 (25 nM)” value worked out at 0.44 Abs 630 and the “Abs 630 (100 nM)” value was 0.34 Abs 630.

Consider B10, for which the “Abs 630 (25 nM)” value turned out to be 0.5 Abs 630 and the “Abs 630 (100 nM)” value was 0.45 Abs 630.

On to B11, for which the “Abs 630 (25 nM)” value was 0.44 Abs 630 and the “Abs 630 (100 nM)” value is 0.34 Abs 630.

Take B12: the “Abs 630 (25 nM)” value is 0.46 Abs 630 and the “Abs 630 (100 nM)” value is 0.4 Abs 630.

Regarding B13, the “Abs 630 (25 nM)” value worked out at 0.49 Abs 630 and the “Abs 630 (100 nM)” value is 0.42 Abs 630.

As for B14, the “Abs 630 (25 nM)” value amounted to 0.46 Abs 630 and the “Abs 630 (100 nM)” value worked out at 0.41 Abs 630.

With B15, the “Abs 630 (25 nM)” value came out at 0.48 Abs 630 and the “Abs 630 (100 nM)” value is 0.39 Abs 630.
